Measurements reported in publication PMC9200344, “The Caenorhabditis elegans TDRD5/7-like protein, LOTR-1, interacts with the helicase ZNFX-1 to balance epigenetic signals in the germline” (PLoS Genetics, 2022).

B1: MIP-2 (natural protein, C. elegans (endogenous in young adults), UniProt P90898 1-666, looked up)
chain: MSEEEGKEKMNKMRKRIERDAYSVLLSFKDGASPKQVEQRMDDTLGYDYCSKYHLAGVYDMAQILIEHPDVRQTYEGKFKIIANEDNQDLVDLISKQSDGPRNKGSSKRGRRSSSSAGYHQRSMFGGELSRSPRYSSCRPRSYASFGKAASKKLFQNFGQPSRPFSVLSSSKASTSSAIQSFGTGNHDSTFGKSSGSNANPTNPPVAPSIQRPLMRPSTASSIPIFILRSGSRSPVKKHVQIKTSSSSSHMPTITEFMNNTKRMMVKELPASVHLSEMTELYEREFGAPVDPLLLFSKSWMLMAKTTFKEFLQVIDGEVSLREKWLADQGTTTKSVLELPSRKVEATTVAQLPISQGFRYQDPNSKPKADLASISKSLDGLTLNARKSKKEASKSDMMPFIPKNHREIVTKRFGNAPSSVKADSIVERVQSTSCIFGRQSVPSVLSISSSSTVVPEKLNEEGLKYDSKELLQLKALKKTDVMLVNVYASLKAFPQMIDARAKALMQQNLEVQRNMASRASLNVVAQVQRPSSSINLQRVRVNPNQCVKKVVPVRTLGQALAEVRRQREQVEQEAFNEQPEPSPSPRLGMGSSSHAASNVSDDGWGAQVVQKVEKSPPKPFTVLLPPMSKGAGVKIRPRSRVVLCHSSASSFPPSLNSDFSPNISQA
notes: MIP-2, LOTUS-domain protein, C. elegans; source: endogenous, C. elegans young adult lysate

Key:
[1] = target: 3xFLAG::GFP::LOTR-1 with e+mLOTUS deletion (sam113) (C. elegans (endogenous in embryos and young adults)); experiment: affinity purification with mass spectrometry; anti-FLAG (M2) IP of 3xFLAG::GFP::LOTR-1 (wild type, LOTUS or Tudor deletion) on Protein G magnetic beads from embryo and young adult extracts, 4°C, washes with 300 mM NaCl; quantitative MS against the lotr-1 deletion expressing 3xFLAG::GFP alone
[2] = target: 3xFLAG::GFP::LOTR-1 with Tudor deletion (sam102) (C. elegans (endogenous in embryos and young adults)); experiment: as above
3xFLAG::GFP::ZNFX-1 = target: T1, 3xFLAG::GFP::ZNFX-1 (C. elegans (endogenous in embryos and …, UniProt E9P860 1-2443)); experiment: affinity purification with mass spectrometry; anti-FLAG IP of 3xFLAG::GFP::ZNFX-1 from embryos and adults of lotr-1(xf58) mutants (in-frame deletion that removes most of the LOTUS domain); quantitative MS compared with the wild-type background; details: partners not purified
T1 construct: ZNFX-1, Z-granule helicase, C. elegans; also called FLAG-tagged ZNFX-1; source: tagged ZNFX-1 expressed in worms, C. elegans embryo and young adult lysate
T1 sequence (E9P860 whole entry, the tested form may be a part): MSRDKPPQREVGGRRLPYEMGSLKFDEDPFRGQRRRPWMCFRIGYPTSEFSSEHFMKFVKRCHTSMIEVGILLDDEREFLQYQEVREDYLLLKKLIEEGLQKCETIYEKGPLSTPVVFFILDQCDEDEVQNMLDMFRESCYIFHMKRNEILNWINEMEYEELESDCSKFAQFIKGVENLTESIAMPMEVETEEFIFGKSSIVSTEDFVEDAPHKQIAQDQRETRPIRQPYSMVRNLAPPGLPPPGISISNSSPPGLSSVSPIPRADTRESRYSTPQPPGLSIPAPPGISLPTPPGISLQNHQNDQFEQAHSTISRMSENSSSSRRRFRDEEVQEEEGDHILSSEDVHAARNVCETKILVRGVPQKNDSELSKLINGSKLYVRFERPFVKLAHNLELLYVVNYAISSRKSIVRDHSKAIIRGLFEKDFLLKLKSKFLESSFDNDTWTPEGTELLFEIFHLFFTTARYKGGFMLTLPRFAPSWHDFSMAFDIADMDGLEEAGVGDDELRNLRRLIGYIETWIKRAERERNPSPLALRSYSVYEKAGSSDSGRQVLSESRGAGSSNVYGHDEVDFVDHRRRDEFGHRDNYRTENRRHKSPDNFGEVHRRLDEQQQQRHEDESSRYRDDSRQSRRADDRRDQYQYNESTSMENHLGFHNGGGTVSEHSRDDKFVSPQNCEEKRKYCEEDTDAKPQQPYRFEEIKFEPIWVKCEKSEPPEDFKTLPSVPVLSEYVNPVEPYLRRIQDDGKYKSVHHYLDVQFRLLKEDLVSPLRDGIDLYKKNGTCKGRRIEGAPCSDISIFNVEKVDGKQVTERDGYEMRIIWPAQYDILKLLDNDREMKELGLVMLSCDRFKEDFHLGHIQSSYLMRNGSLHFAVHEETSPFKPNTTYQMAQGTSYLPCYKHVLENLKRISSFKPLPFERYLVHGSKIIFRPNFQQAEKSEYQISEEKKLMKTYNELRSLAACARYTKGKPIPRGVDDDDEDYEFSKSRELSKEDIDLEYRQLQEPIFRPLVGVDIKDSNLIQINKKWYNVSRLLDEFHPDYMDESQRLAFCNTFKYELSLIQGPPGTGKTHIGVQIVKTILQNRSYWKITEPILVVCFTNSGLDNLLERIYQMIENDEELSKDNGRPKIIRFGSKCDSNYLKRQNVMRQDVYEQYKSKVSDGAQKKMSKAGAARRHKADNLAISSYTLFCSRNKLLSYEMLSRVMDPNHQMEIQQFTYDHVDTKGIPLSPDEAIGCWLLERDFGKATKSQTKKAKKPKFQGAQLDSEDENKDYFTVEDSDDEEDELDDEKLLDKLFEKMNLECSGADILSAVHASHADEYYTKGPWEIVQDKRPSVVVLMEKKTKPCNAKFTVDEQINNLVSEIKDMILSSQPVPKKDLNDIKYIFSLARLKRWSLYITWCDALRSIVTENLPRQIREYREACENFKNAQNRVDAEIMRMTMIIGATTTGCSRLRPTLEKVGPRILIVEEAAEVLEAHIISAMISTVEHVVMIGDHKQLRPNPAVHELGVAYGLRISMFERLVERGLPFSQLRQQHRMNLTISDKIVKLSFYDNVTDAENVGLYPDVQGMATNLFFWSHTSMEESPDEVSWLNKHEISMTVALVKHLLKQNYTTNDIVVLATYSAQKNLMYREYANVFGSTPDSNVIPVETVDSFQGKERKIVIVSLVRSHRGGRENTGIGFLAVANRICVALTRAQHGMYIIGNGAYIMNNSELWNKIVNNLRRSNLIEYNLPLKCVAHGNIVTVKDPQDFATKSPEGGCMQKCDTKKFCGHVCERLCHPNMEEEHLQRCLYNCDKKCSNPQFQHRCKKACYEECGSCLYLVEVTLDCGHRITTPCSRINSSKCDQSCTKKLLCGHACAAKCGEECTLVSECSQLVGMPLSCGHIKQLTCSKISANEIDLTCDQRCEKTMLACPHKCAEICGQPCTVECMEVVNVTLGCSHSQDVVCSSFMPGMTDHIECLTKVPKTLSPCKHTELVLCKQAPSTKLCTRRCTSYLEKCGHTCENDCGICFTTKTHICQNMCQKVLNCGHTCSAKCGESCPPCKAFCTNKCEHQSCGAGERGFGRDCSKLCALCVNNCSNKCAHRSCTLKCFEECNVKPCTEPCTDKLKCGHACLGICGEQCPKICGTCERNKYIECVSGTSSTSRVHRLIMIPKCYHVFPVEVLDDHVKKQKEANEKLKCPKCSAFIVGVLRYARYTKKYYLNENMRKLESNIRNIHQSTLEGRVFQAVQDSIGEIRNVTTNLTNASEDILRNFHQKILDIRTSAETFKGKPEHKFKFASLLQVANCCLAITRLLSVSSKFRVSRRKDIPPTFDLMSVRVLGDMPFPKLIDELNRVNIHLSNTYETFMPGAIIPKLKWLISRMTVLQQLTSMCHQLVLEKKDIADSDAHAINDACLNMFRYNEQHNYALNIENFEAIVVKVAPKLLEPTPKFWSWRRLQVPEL

| Molecule | fold change of association against wild-type LOTR-1 (embryos) [1] [fold] | percent reduction of association against wild-type LOTR-1 (embryos) [2] [%] | fold change of association in lotr-1(xf58) mutant adults against wild type (3xFLAG::GFP::ZNFX-1) [fold] |
| --- | --- | --- | --- |
| MEG-3 (natural protein) | 2 | 90 | – |
| B1 | – | – | 2 |
